Consider nine molecules from US20240270839A1.

Test [1] deals with human CLDN18.2 as used in the Octet assay (human). Kind of test: Octet (BLI); format not described.
For test [2], the target named is biotin labeled hCLDN18.2 (human). Kind of test: competitive ELISA: excess antibody plus biotin labeled hCLDN18.2 on coated IMAB362; competitor IMAB362. In general terms: ELISA stands for enzyme-linked immunosorbent assay.
In test [3] the target is mouse CLDN18.2 (mCLDN18.2), expressed on HEK293 cells (mouse) (UniProt P56857). Kind of test: FACS, HEK293/mCLDN18.2 cells. In general terms: Flow cytometry measures light scatter and fluorescence of single cells or particles in a stream.
Test [4] concerns the target recombinant 6xHis tagged human CLDN18.2 (human). The test can be described thus: SPR (Biacore); same values as Table 30, where the antibody is hu35B4.H1L2.
Test [5] shares this target. Kind of test: SPR (Biacore T200), His tagged CLDN18.2 amine-coupled on CM5, antibody as analyte, 1:1 fit. In general terms: In SPR one partner is held on a chip, and binding of the other changes the refractive index at the surface.
The target is the same in test [6]. Kind of test: SPR (Biacore); same values as Table 30, where the antibody is ch97A9.
Test [7] has the same target. The test can be described thus: SPR (Biacore); same values as Table 30, where the antibody is ch99H8.
The target is the same in test [8]. Kind of test: SPR (Biacore); same values as Table 30, where the antibody is hu22E12.H1L2.

B1: 35B4 (antibody, V domains shown)
VH: EAKLVESGGDFMQPGGSLKLSCAASGFTLSSYALSWVRQTPEKRLEWVAYISNLGGSTFYPDTVKGRFTISRDNARNTLFLQMSSLQSEDTAIYYCATHLYNYDAFASWGQGTLVTVSA
VL: QIVLSQSPAILSASPGEKVTMTCRASSSVNYIHWYQQKPGSSPKAWIYATSNLASGVPTRFSGSGSGTSYSLTIDRVEAEDAATYYCQQWNSNPLTFGAGTKLELK
As for B1, the Kd – broadly, the equilibrium constant for the complex coming apart – in test [1] worked out at 3.3 nM. Moreover, the Compete with IMAB362 (%) in test [2] stood at 81%. For the same molecule, in test [3], the EC50 (commonly the midpoint of the concentration-response curve) was determined as 1.9 nM.

B2: 33G12 (antibody, V domains shown)
VH: EVKLVESGGGLVQPGGSLKLSCAASGFTFSRYAMSWVRQTPEKRLEWVAYISIGGTTYYPDTIKGRFTISRDNAKNTLYLQMSSLKSEDTAMYYCTRHYYGHDVMDYWGQGTSVTVSS
VL: QIVLSQSPTILSASPGEKVTMTCRATSSVSYMHWFQQKPGSSPKPWIYATSNLASGVPARFSGSGSGTSYSLTISRVEAEDAATYYCQQWSRNPLTFGAGTKLELK
In turn, B2 gave a Kd in test [1] of 6.2 nM. Moreover, the Compete with IMAB362 (%) in test [2] is 87%. Further, in test [3], the EC50 is 1.7 nM.

B3: hu35B4.H1L2 (antibody, V domains shown)
VH: EVQLLESGGGLVQPGGSLRLSCAASGFTLSSYALSWVRQAPGKGLEWVSYISNLGGSTFYPDTVKGRFTISRDNSKNTLYLQMNSLRAEDTAVYYCAKHLYNYDAFASWGQGTLVTVSS
VL: DIQLTQSPSFLSASVGDRVTITCRASSSVNYIHWYQQKPGKAPKALIYATSNLASGVPSRFSGSGSGTEYTLTISSLQPEDFATYYCQQWNSNPLTFGQGTKLEIK
For B3, the Kd in test [4] turned out to be 1.57 nM. Further, in test [5], the Kd came to 1.57 nM; the dissociation rate constant (koff) (as a rule, a measure of how fast the partners let go of each other) was 0.00035 s⁻¹; the kon (as a rule, a measure of how fast the partners come together) amounted to 222000 M⁻¹ s⁻¹.

B4: ch97A9 (antibody, V domains shown)
VH: QVQLQQSGPELVKPGASMKLSCKASGYSFTRNDINWVKQRPGQGLEWIGLSYPRDGTTQYNGKFKGKATLTVDTSSSTAYMELRSLTSEDSAVYFCARGYYGNSFAYWGQGTLVTVSA
VL: DIVMTQSPSSLTVTAGEKVTMSCKSSQSLLNSGNQKNYLTWYQQKPGQPPKLLIYWASTRESGVPDRFTGSGSGTYFTLTISSVQAEDLAVYFCQNDYYFPYTFGGGTKLEIK
Consider B4, for which the Kd in test [6] was found to be 1.15 nM. In test [5], the Kd is 1.15 nM, the koff turned out to be 0.000489 s⁻¹ and the kon is 425000 M⁻¹ s⁻¹.

B5: 97A9 (antibody, V domains shown)
VH: QVQLQQSGPELVKPGASMKLSCKASGYSFTRNDINWVKQRPGQGLEWIGLSYPRDGTTQYNGKFKGKATLTVDTSSSTAYMELRSLTSEDSAVYFCARGYYGNSFAYWGQGTLVTVSA
VL: DIVMTQSPSSLTVTAGEKVTMSCKSSQSLLNSGNQKNYLTWYQQKPGQPPKLLIYWASTRESGVPDRFTGSGSGTYFTLTISSVQAEDLAVYFCQNDYYFPYTFGGGTKLEIK
As to B5, the Kd in test [1] turned out to be 2.2 nM. For the same molecule, the Compete with IMAB362 (%) in test [2] was determined as 92%. This molecule yielded an EC50 in test [3] of 1.4 nM.

B6: 22E12 (antibody, V domains shown)
VH: QVQLQQPGTELVKTGTSVKLSCKASGYTFTNWVHWVIQRPGQGLEWIGEINPTNGRSNYNEKFKKKATLTLDRSSTTAYMQLSSLTSEDSAVYFCAGIYYGNSFAHWGQGTLVTVSA
VL: DIVMTQSPSSLTVTAGEKVTLSCKSSQSLLNSGNQKNYLTWYQQKPGQPPKLLIYWSSTRESGVPDRFTGSGSGTDFTLTISSVQAEDLAVYHCQNNYYYPLTFGAGTKLELK
For the molecule B6, in test [1], the Kd was under 0.001 nM. Also, the Compete with IMAB362 (%) in test [2] is 49%. In addition, the EC50 in test [3] was determined as 0.9 nM.

B7: ch99H8 (antibody, V domains shown)
VH: QVQLQQSGPELVKPGASVKLSCKASGYSFTNFDINWVKQRPGQGLQWIGRLYPRDGTTTYNEKFKGKASLTVDTSSTTSYMDLHSLTSEDSAVYFCVRGNYGNSFAYWGQGTLVTVSA
VL: DIVMTQSPSSLTVTAREKVIMNCKSSQSLFNSGNQKNYLTWYQQKPGQSPKLLIYWASTRQSGVPDRFTGSGSGTDFTLTISTVQAEDLAVYFCQNGFSFPYTFGGGTKLEMN
Turning to B7, the Kd in test [7] worked out at 1.75 nM. Also, in test [5], the Kd was 1.75 nM, the koff came out at 0.000355 s⁻¹ and the kon came out at 203000 M⁻¹ s⁻¹.

B8: 99H8 (antibody, V domains shown)
VH: QVQLQQSGPELVKPGASVKLSCKASGYSFTNFDINWVKQRPGQGLQWIGRLYPRDGTTTYNEKFKGKASLTVDTSSTTSYMDLHSLTSEDSAVYFCVRGNYGNSFAYWGQGTLVTVSA
VL: DIVMTQSPSSLTVTAREKVIMNCKSSQSLFNSGNQKNYLTWYQQKPGQSPKLLIYWASTRQSGVPDRFTGSGSGTDFTLTISTVQAEDLAVYFCQNGFSFPYTFGGGTKLEMN
On to B8, for which the Kd in test [1] is 2 nM. For the same molecule, the concentration giving a half-maximal response (EC50) in test [3] stood at 3.5 nM.

B9: hu22E12.H1L2 (antibody, V domains shown)
VH: QVQLVQSGAEVKKPGASVKVSCKASGYTFTNWVHWVRQAPGQGLEWMGEINPTNARSNYNEKFKKRVTMTRDTSTSTVYMELSSLRSEDTAVYYCARIYYGNSFAHWGQGTLVTVSS
VL: DIVMTQSPDSLAVSLGERATINCKSSQSLLNAGNQKNYLTWYQQKPGQPPKLLIYWSSTRESGVPDRFSGSGSGTDFTLTISSLQAEDVAVYHCQNNYYYPLTFGGGTKLEIK
Turning to B9, in test [5], the Kd turned out to be 0.26 nM, the koff was 0.000202 s⁻¹ and the kon turned out to be 778000 M⁻¹ s⁻¹. In test [8], the Kd was 0.26 nM.
